T1: mouse beta klotho expressed on cells (mouse (Mus musculus), UniProt Q99N32 1-1043)
T1 construct: also called Mouse KLB
T1 sequence: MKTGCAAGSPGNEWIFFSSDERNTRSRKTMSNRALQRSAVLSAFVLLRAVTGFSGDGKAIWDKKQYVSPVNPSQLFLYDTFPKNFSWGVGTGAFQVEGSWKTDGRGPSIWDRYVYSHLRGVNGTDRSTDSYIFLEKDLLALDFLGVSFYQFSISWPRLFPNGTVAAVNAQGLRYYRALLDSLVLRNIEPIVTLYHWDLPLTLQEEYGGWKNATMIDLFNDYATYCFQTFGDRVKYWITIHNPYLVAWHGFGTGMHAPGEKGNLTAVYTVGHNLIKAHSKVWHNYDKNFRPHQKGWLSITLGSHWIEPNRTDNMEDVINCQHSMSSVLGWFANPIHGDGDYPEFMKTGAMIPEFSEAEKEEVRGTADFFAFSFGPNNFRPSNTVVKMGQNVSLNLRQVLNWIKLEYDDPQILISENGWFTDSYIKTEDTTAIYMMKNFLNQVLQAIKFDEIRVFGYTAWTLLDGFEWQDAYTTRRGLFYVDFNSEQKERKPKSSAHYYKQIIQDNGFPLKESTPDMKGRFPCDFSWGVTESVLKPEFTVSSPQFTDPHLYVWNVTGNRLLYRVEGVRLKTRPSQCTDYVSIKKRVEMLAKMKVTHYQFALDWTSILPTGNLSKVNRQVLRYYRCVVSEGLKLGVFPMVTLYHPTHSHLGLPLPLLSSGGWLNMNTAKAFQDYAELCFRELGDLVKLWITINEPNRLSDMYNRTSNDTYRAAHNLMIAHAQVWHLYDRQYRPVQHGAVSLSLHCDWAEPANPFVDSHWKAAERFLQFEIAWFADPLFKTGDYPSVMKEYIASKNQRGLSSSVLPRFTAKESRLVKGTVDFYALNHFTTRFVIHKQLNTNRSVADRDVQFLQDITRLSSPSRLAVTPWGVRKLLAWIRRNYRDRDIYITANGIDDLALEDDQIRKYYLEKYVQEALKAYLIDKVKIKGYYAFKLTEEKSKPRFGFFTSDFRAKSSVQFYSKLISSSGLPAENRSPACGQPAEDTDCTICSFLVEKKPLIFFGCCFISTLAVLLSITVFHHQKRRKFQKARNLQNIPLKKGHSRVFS

T2: cynomolgus beta klotho expressed on cells (cynomolgus monkey (Macaca fascicularis), UniProt Q86Z14 1-1044 (human entry))
T2 construct: also called Cynomolgus KLB
T2 chain: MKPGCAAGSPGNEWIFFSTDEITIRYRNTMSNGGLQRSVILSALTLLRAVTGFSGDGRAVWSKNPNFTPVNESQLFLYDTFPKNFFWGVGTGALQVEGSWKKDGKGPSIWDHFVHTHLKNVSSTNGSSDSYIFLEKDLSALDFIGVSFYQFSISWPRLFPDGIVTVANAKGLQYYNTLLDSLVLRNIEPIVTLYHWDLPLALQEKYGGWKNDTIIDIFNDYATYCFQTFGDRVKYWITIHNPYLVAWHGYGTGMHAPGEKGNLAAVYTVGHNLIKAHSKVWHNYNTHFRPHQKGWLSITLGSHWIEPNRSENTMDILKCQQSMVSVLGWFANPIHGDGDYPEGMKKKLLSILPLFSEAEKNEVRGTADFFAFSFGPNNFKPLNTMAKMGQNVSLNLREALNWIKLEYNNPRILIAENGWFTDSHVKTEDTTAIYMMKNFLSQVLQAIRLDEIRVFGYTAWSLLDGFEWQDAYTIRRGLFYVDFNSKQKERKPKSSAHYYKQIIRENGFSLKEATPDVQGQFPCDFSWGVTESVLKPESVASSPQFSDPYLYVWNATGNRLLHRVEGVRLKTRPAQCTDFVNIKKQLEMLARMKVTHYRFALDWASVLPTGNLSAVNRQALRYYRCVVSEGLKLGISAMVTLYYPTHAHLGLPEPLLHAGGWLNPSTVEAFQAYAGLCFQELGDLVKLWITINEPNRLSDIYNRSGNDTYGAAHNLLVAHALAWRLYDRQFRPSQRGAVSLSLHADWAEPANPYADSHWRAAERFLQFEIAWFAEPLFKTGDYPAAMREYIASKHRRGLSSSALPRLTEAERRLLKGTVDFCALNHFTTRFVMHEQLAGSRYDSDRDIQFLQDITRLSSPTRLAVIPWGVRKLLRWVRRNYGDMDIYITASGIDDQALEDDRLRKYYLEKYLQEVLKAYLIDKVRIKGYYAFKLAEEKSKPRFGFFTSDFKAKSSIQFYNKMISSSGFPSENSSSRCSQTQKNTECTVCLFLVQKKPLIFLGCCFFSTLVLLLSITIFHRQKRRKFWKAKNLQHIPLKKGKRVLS

B1: humanized 5H23 antibody (VH SEQ ID NO: 271 and VL SEQ ID NO: 276) (antibody, V domains shown)
VH: QVQLQQSGAEVKKPGASVKVSCKASGYTFTSYDINWVRQAPGQGLEWIGWIYPGDGSTKYNEKFKGKATITRDTSASTAYMELSSLRSEDTAVYFCARSDYYGSRSFAYWGQGTLVTVSS
VL: DIVMTQSPDSLAVSLGERATINCRASKSVSTSGYVYMHWYQQKPGQPPKLLIYLASYLESGVPDRFSGSGSGTDFTLTISSVQAEDVAVYYCQHSRDLTFPFGGGTKLEIK
notes: also called h5H23; h5H23 (Prep 1)
B2: negative control antibody, anti-keyhole limpet hemocyanin (KLH) antibody (antibody, human IgG1, kappa, V domains shown)
VH: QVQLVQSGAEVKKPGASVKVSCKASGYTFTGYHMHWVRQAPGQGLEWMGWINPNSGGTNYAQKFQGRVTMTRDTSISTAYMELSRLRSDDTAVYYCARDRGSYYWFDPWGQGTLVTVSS
VL: DIQMTQSPSSLSASVGDRVTITCRASQGIRNDLGWYQQKPGKAPKRLIYAASSLQSGVPSRFSGSGSGTEFTLTISSLQPEDFATYYCLQHNSYPLTFGGGTKVEIKR
notes: also called Neg; Control; anti-KLH antibody

Key:
Assay in all cases: FACS on transfected Expi293 cells
[1] = target: T1, mouse beta klotho expressed on cells
Procedure: (§1) Studies were performed in order to localize the binding site on human KLB of anti-beta klotho antibodies in the 5H23 epitope bin, including 5H23 as described in Example 3, with sequences shown in Tables 1-10 and FIGS. 1-3, and human anti-beta klotho antibodies in the 5H23 epitope bin, such as humanized 5H23 antibodies (e.g., VH SEQ ID NO: 271 and VL SEQ ID NO: 276). For example, FACS-based binding assays for domain mapping were performed on Expi293 cells (Life Technologies, A14635) that were transiently transfected with plasmids encoding variants of KLB: human, mouse, cynomolgus, a chimeric version in which the KL1 domain sequence of mouse KLB (M1-F506) replaces the KL1 domain of human KLB (M1-F508) to create mouse-human KLB (SEQ ID NO: 376), and a second chimera in which the human KL1 sequence (M1-F508) replaces the KL1 domain of mouse KLB (M1-F506) to create human-mouse KLB (SEQ ID NO: 374). Additionally, the expression vector pYD7 harboring no KLB sequence was transfected as a negative control.
(§2) In some studies, binding of a purified sample of a humanized 5H23 antibody (e.g., VH SEQ ID NO: 271 and VL SEQ ID NO: 276) to KLB variants was determined by FACS analysis. […] After washing with PBS/1% BSA/0.1% azide, transfected cells were then co-incubated with labeled anti-human Fc (Jackson lmmunoresearch) for 30 minutes at 4° C. After washing with PBS/1% BSA/0.1% azide, cells were acquired on flow cytometer (FACS Calibur) and analyzed by cytometric software (FlowJo). To display the resulting data, graphs plotting the number of cells as a function of fluorescence intensity were generated, and the median fluorescence intensity (MFI) was determined for each sample as shown in Table 30.

[2] = target: T3, human-mouse KLB chimeric protein (human KLB (M1-F508)-mouse KLB (P507-S1043)) on cells (human/mouse chimera, UniProt Q99N32 1-1043 (mouse entry))
T3 construct: also called Human-Mouse chimeric KLB; chHuMo
Procedure: as §1, §2

[3] = target: T2, cynomolgus beta klotho expressed on …
Procedure: as §1, §2

Binder | binding result [1] | binding result [2] | binding result [3]
B1 | no binding (tested: 1 µg/ml) | no binding (tested: 1 µg/ml) | 
B2 |  |  | no binding (tested: 1 µg/ml)
